According to patent US20210032299A1 (Eli Lilly, published 2021):
Starred links: 1 amine or outer side, 2 acyl side, 3 side chain; linkers in the order of their positions; H or OH if unused. Non-standard residues stand in square brackets, D forms with d. Groups on a side chain read outwards from the residue. No end group written: not given here. *: point of attachment. C20 diacid = O=C(O)CCCCCCCCCCCCCCCCCCC(=O)*; C18 diacid = O=C(O)CCCCCCCCCCCCCCCCC(=O)*; αMePhe(2-F) = C[C@](N)(Cc1ccccc1F)C(=O)O; γGlu = O=C(O)[C@H](CCC(=O)[*:2])N[*:1]; αMeF = C[C@](N)(Cc1ccccc1)C(=O)O; 4Pal = N[C@@H](Cc1ccncc1)C(=O)O; AEEA = NCCOCCOCC(=O)O; Aib = CC(C)(N)C(=O)O

T1: human glucose-dependent insulinotropic polypeptide (GIP) receptor (human, UniProt P48546 22-466)
T1 construct: whole, on cells; Assayed as crude membranes of stably transfected CHO cells; also called hGIPR; human GIP receptor
T1 sequence (looked up): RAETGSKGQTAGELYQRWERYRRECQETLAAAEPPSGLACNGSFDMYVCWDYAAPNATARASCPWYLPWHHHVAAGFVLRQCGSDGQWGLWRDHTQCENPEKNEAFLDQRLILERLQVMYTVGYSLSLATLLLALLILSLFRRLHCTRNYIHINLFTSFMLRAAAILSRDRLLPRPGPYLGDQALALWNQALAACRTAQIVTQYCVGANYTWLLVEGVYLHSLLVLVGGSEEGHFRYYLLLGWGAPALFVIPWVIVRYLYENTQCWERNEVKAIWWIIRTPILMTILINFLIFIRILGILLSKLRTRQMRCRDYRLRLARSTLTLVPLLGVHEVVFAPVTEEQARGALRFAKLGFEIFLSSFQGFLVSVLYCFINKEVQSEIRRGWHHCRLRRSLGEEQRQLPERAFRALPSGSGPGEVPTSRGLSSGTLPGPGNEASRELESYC


Tests used:
human GLP-1 receptor = biological target: T2, human GLP-1 receptor (human, UniProt P43220 24-463); assay: SPA, displacement of [125I]-GLP-1 from hGLP-1R membranes, 0.1% bacitracin
T2 construct: whole, on cells; Assayed as crude membranes of stably transfected HEK293 cells; also called hGLP1R; hGLP-1R
How it was run: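 Binding buffer: 25 mM HEPES pH 7.4, 2.5 mM CaCl₂, 1 mM MgCl₂, 0.1% bacitracin, 0.003% Tween-20, protease inhibitors without EDTA. Four-parameter nonlinear regression; Kᵢ given as geometric mean ± SEM, n = independent replicates run on different days.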

human glucagon receptor = biological target: T3, human glucagon receptor (human, UniProt P47871 26-477); assay: SPA, displacement of [125I]-Gcg from hGcgR membranes, 0.1% bacitracin
T3 construct: whole, on cells; Assayed as crude membranes of stably transfected HEK293 cells; also called hGcgR; GcgR
T3 sequence (P47871 26-477): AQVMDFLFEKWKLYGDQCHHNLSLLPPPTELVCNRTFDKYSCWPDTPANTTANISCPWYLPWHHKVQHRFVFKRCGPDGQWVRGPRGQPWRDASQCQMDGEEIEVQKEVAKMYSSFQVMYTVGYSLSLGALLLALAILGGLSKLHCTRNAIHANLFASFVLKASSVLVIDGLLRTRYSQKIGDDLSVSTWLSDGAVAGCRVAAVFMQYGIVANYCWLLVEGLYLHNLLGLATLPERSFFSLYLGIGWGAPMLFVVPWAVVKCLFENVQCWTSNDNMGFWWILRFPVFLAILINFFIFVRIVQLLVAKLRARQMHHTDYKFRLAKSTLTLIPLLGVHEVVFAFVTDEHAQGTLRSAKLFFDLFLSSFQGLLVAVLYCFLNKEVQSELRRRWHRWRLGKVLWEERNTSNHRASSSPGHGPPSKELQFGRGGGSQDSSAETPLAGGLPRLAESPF
How it was run: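 Binding buffer: 25 mM HEPES pH 7.4, 2.5 mM CaCl₂, 1 mM MgCl₂, 0.003% Tween-20, protease inhibitors without EDTA. Counted by scintillation after 12 h incubation/settling at room temperature. Four-parameter nonlinear fit; Kᵢ given as geometric mean ± SEM of independent replicates run on different days.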

[1] = biological target: T1, human glucose-dependent insulinotropic …; assay: SPA, displacement of [125I]-GIP from hGIPR membranes, 0.1% bacitracin

| Binder | Ki (human GLP-1 receptor) [nM] | Ki (human glucagon receptor) [nM] | Ki [1] [nM] |
| --- | --- | --- | --- |
| YXEGTFISDYSILLDKKAQXDFVNXLLAQGPSSGAPPPS (D-Ala2; K17((2-[2-(2-Amino-ethoxy)-ethoxy]-acetyl)2-(γ-Glu)-CO-(CH2)16-CO2H); Aib20; 4-Pal25; C-terminal amide) [Example 18] | 158 | 463 | 0.0331 |
| Y[Aib]EGT[αMePhe(2-F)]ISDYSIALDKK([AEEA-AEEA-γGlu-C20 diacid])HQ[Aib]DFVE[4Pal]LLEGGPSSGAPPPS-NH2 (N-terminus assumed; SMILES CC[C@H](C)[C@H](NC(=O)[C@H](CO)NC(=O)[C@H](Cc1ccc(O)cc1)NC(=O)[C@H](CC(=O)O)NC(=O)[C@H](CO)NC(=O)[C@@H](NC(=O)[C@](C)(Cc1ccccc1F)NC(=O)[C@@H](NC(=O)CNC(=O)[C@H](CCC(=O)O)NC(=O)C(C)(C)NC(=O)[C@@H](N)Cc1ccc(O)cc1)[C@@H](C)O)[C@@H](C)CC)C(=O)N[C@@H](C)C(=O)N[C@@H](CC(C)C)C(=O)N[C@@H](CC(=O)O)C(=O)N[C@@H](CCCCN)C(=O)N[C@@H](CCCCNC(=O)COCCOCCNC(=O)COCCOCCNC(=O)CC[C@H](NC(=O)CCCCCCCCCCCCCCCCCCC(=O)O)C(=O)O)C(=O)N[C@@H](Cc1c[nH]cn1)C(=O)N[C@@H](CCC(N)=O)C(=O)NC(C)(C)C(=O)N[C@@H](CC(=O)O)C(=O)N[C@@H](Cc1ccccc1)C(=O)N[C@H](C(=O)N[C@@H](CCC(=O)O)C(=O)N[C@@H](Cc1ccncc1)C(=O)N[C@@H](CC(C)C)C(=O)N[C@@H](CC(C)C)C(=O)N[C@@H](CCC(=O)O)C(=O)NCC(=O)NCC(=O)N1CCC[C@H]1C(=O)N[C@@H](CO)C(=O)N[C@@H](CO)C(=O)NCC(=O)N[C@@H](C)C(=O)N1CCC[C@H]1C(=O)N1CCC[C@H]1C(=O)N1CCC[C@H]1C(=O)N[C@@H](CO)C(N)=O)C(C)C) [Example 39] | 235 | 76 | 0.0444 |
| Y[Aib]EGT[αMeF]ISDYSIALDKK([AEEA-AEEA-γGlu-C18 diacid])HQ[Aib]DFVE[4Pal]LLAGGPSSGAPPPS-NH2 (N-terminus assumed; SMILES CC[C@H](C)[C@H](NC(=O)[C@H](CO)NC(=O)[C@H](Cc1ccc(O)cc1)NC(=O)[C@H](CC(=O)O)NC(=O)[C@H](CO)NC(=O)[C@@H](NC(=O)[C@](C)(Cc1ccccc1)NC(=O)[C@@H](NC(=O)CNC(=O)[C@H](CCC(=O)O)NC(=O)C(C)(C)NC(=O)[C@@H](N)Cc1ccc(O)cc1)[C@@H](C)O)[C@@H](C)CC)C(=O)N[C@@H](C)C(=O)N[C@@H](CC(C)C)C(=O)N[C@@H](CC(=O)O)C(=O)N[C@@H](CCCCN)C(=O)N[C@@H](CCCCNC(=O)COCCOCCNC(=O)COCCOCCNC(=O)CC[C@H](NC(=O)CCCCCCCCCCCCCCCCC(=O)O)C(=O)O)C(=O)N[C@@H](Cc1c[nH]cn1)C(=O)N[C@@H](CCC(N)=O)C(=O)NC(C)(C)C(=O)N[C@@H](CC(=O)O)C(=O)N[C@@H](Cc1ccccc1)C(=O)N[C@H](C(=O)N[C@@H](CCC(=O)O)C(=O)N[C@@H](Cc1ccncc1)C(=O)N[C@@H](CC(C)C)C(=O)N[C@@H](CC(C)C)C(=O)N[C@@H](C)C(=O)NCC(=O)NCC(=O)N1CCC[C@H]1C(=O)N[C@@H](CO)C(=O)N[C@@H](CO)C(=O)NCC(=O)N[C@@H](C)C(=O)N1CCC[C@H]1C(=O)N1CCC[C@H]1C(=O)N1CCC[C@H]1C(=O)N[C@@H](CO)C(N)=O)C(C)C) [Example 23] | 251 | 323 | 0.0341 |
| Y[Aib]EGT[αMePhe(2-F)]ISDYSIALDKK([AEEA-AEEA-γGlu-C20 diacid])HQ[Aib]DFVE[4Pal]LLETGPSSGAPPPS-NH2 (N-terminus assumed; SMILES CC[C@H](C)[C@H](NC(=O)[C@H](CO)NC(=O)[C@H](Cc1ccc(O)cc1)NC(=O)[C@H](CC(=O)O)NC(=O)[C@H](CO)NC(=O)[C@@H](NC(=O)[C@](C)(Cc1ccccc1F)NC(=O)[C@@H](NC(=O)CNC(=O)[C@H](CCC(=O)O)NC(=O)C(C)(C)NC(=O)[C@@H](N)Cc1ccc(O)cc1)[C@@H](C)O)[C@@H](C)CC)C(=O)N[C@@H](C)C(=O)N[C@@H](CC(C)C)C(=O)N[C@@H](CC(=O)O)C(=O)N[C@@H](CCCCN)C(=O)N[C@@H](CCCCNC(=O)COCCOCCNC(=O)COCCOCCNC(=O)CC[C@H](NC(=O)CCCCCCCCCCCCCCCCCCC(=O)O)C(=O)O)C(=O)N[C@@H](Cc1c[nH]cn1)C(=O)N[C@@H](CCC(N)=O)C(=O)NC(C)(C)C(=O)N[C@@H](CC(=O)O)C(=O)N[C@@H](Cc1ccccc1)C(=O)N[C@H](C(=O)N[C@@H](CCC(=O)O)C(=O)N[C@@H](Cc1ccncc1)C(=O)N[C@@H](CC(C)C)C(=O)N[C@@H](CC(C)C)C(=O)N[C@@H](CCC(=O)O)C(=O)N[C@H](C(=O)NCC(=O)N1CCC[C@H]1C(=O)N[C@@H](CO)C(=O)N[C@@H](CO)C(=O)NCC(=O)N[C@@H](C)C(=O)N1CCC[C@H]1C(=O)N1CCC[C@H]1C(=O)N1CCC[C@H]1C(=O)N[C@@H](CO)C(N)=O)[C@@H](C)O)C(C)C) [Example 38] | 776 | 182 | 0.0588 |
| Y[dA]EGTFISDYSILLDKK([AEEA-AEEA-γGlu-C20 diacid])AQQDFVNWLLAQGPSSGAPPPS-NH2 (N-terminus assumed; SMILES CC[C@H](C)[C@H](NC(=O)[C@H](CO)NC(=O)[C@H](Cc1ccc(O)cc1)NC(=O)[C@H](CC(=O)O)NC(=O)[C@H](CO)NC(=O)[C@@H](NC(=O)[C@H](Cc1ccccc1)NC(=O)[C@@H](NC(=O)CNC(=O)[C@H](CCC(=O)O)NC(=O)[C@@H](C)NC(=O)[C@@H](N)Cc1ccc(O)cc1)[C@@H](C)O)[C@@H](C)CC)C(=O)N[C@@H](CC(C)C)C(=O)N[C@@H](CC(C)C)C(=O)N[C@@H](CC(=O)O)C(=O)N[C@@H](CCCCN)C(=O)N[C@@H](CCCCNC(=O)COCCOCCNC(=O)COCCOCCNC(=O)CC[C@H](NC(=O)CCCCCCCCCCCCCCCCCCC(=O)O)C(=O)O)C(=O)N[C@@H](C)C(=O)N[C@@H](CCC(N)=O)C(=O)N[C@@H](CCC(N)=O)C(=O)N[C@@H](CC(=O)O)C(=O)N[C@@H](Cc1ccccc1)C(=O)N[C@H](C(=O)N[C@@H](CC(N)=O)C(=O)N[C@@H](Cc1c[nH]c2ccccc12)C(=O)N[C@@H](CC(C)C)C(=O)N[C@@H](CC(C)C)C(=O)N[C@@H](C)C(=O)N[C@@H](CCC(N)=O)C(=O)NCC(=O)N1CCC[C@H]1C(=O)N[C@@H](CO)C(=O)N[C@@H](CO)C(=O)NCC(=O)N[C@@H](C)C(=O)N1CCC[C@H]1C(=O)N1CCC[C@H]1C(=O)N1CCC[C@H]1C(=O)N[C@@H](CO)C(N)=O)C(C)C) [Example 11] | 85.9 | 163 | 0.0584 |
| Y[dA]EGTFISDYSILLDKK([AEEA-AEEA-γGlu-C20 diacid])AQQDFVNWLLAGGPSSGAPPPS-NH2 (N-terminus assumed; SMILES CC[C@H](C)[C@H](NC(=O)[C@H](CO)NC(=O)[C@H](Cc1ccc(O)cc1)NC(=O)[C@H](CC(=O)O)NC(=O)[C@H](CO)NC(=O)[C@@H](NC(=O)[C@H](Cc1ccccc1)NC(=O)[C@@H](NC(=O)CNC(=O)[C@H](CCC(=O)O)NC(=O)[C@@H](C)NC(=O)[C@@H](N)Cc1ccc(O)cc1)[C@@H](C)O)[C@@H](C)CC)C(=O)N[C@@H](CC(C)C)C(=O)N[C@@H](CC(C)C)C(=O)N[C@@H](CC(=O)O)C(=O)N[C@@H](CCCCN)C(=O)N[C@@H](CCCCNC(=O)COCCOCCNC(=O)COCCOCCNC(=O)CC[C@H](NC(=O)CCCCCCCCCCCCCCCCCCC(=O)O)C(=O)O)C(=O)N[C@@H](C)C(=O)N[C@@H](CCC(N)=O)C(=O)N[C@@H](CCC(N)=O)C(=O)N[C@@H](CC(=O)O)C(=O)N[C@@H](Cc1ccccc1)C(=O)N[C@H](C(=O)N[C@@H](CC(N)=O)C(=O)N[C@@H](Cc1c[nH]c2ccccc12)C(=O)N[C@@H](CC(C)C)C(=O)N[C@@H](CC(C)C)C(=O)N[C@@H](C)C(=O)NCC(=O)NCC(=O)N1CCC[C@H]1C(=O)N[C@@H](CO)C(=O)N[C@@H](CO)C(=O)NCC(=O)N[C@@H](C)C(=O)N1CCC[C@H]1C(=O)N1CCC[C@H]1C(=O)N1CCC[C@H]1C(=O)N[C@@H](CO)C(N)=O)C(C)C) [Example 12] | 46.8 | 134 | 0.0876 |
